Assay results from article PMC8733265, “Microscale thermophoresis suggests a new model of regulation of cardiac myosin function via interaction with cardiac myosin-binding protein C” (The Journal of Biological Chemistry, 2021).

Key:
[1] = target: T1, C0C2, cMyBP-C spanning domains C0 to C2 (UniProt Q14896 1-452); assay: MST; Monolith NT.115; 100 nmol/l Alexa647-labelled protein fixed, partner titrated; 20 mmol/l Mops pH 7, 1 mmol/l MgCl2, 50 mmol/l KCl, 1 mmol/l DTT, 0.05% Tween-20; settings: both partners purified
T1 construct: also called N-terminal domains (NTD) of cMyBP-C; C0-P/A-C1-m-C2; source: E. coli BL21(DE3)-RIPL, purified (HisTrapFF, TEV, ion exchange); not shown: His tag, N-terminal, cleaved

[2] = target: T2, C0C2-3P, tris-phosphorylated C0C2 (UniProt Q14896 1-452, tris-phosphorylated by PKA (m-motif; sites not given)); assay: as above; settings: both partners purified
T2 construct: not shown: His tag, N-terminal, cleaved
T2 sequence (Q14896 1-452): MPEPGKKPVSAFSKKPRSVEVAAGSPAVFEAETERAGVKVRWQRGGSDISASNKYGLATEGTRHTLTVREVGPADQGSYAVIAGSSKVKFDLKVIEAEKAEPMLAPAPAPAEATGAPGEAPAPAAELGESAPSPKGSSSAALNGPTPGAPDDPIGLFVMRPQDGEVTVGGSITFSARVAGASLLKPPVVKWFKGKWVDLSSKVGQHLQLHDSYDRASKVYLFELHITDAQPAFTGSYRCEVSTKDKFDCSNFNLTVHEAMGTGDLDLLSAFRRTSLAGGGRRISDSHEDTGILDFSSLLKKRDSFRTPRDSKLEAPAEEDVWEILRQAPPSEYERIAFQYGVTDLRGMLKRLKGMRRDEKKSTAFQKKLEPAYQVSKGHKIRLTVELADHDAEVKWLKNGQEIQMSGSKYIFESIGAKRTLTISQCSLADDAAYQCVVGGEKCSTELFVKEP

T1 sequence (Q14896 1-452): as above

B1: phospho-miniHMM (miniHMM phosphorylated in vitro by cMLCK) (complex)
chain 1: RDSLLVIQWNIRAFMGVKNWPWMKLYFKIKPLLKSAEREKEMASMKEEFTRLKEALEKSEARRKELEEKMVSLLQEKNDLQLQVQAEQDNLADAEERCDQLIKNKIQLEAKVKEMNERLEDEEEMNAELTAKKRKLEDECSELKRDIDDLELTLAK
chain 2: APKKAKKRAGGANSNVFSMFEQTQIQEFKEAFTIMDQNRDGFIDKNDLRDTFAALGRVNVKNEEIDEMIKEAPGPINFTVFLTMFGEKLKGADPEETILNAFKVFDPEGKGVLKADYVREMLTTQAERFSKEEVDQMFAAFPPDVTGNLDYKNLVHIITHGEEKD
modifications: phosphorylated by cMLCK to about 1 mol Pi/mol RLC (site not given)
A Kd [1] of 2700 nM and a Kd [2] of 5 µM were found for B1 in this work.
